# Reference: the Human Domainome abundance scans (Beltran et al. 2025)
# ± gives the uncertainty stated by the source.
# B1: SWI/SNF-related matrix-associated actin-dependent regulator of chromatin subfamily B member 1, residues 181 to 248; numbered along this chain, Q12824 (parent)
# chain: SQPEVLVPIRLDMEIDGQKLRDAFTWNMNEKLMTPEMFSEILCDDLDLNPLTFVPAIASAIRQQIESY
# Variants of: B1
# Assay: abundance fitness (aPCA) (normalised: wild type 0, dead -1); higher = more abundant; growth selection in yeast, the domain comes from the species named
# Conditions: Homo sapiens
row,Variant,abundance fitness
1,SQPEVLVPIRLDMEIDGQKLRDAFTWNMNEKLMTPEMFSEILCDDLDLNPLTFVPAIASASRQQIESY,-1.06 ± 0.17
2,SQPEVLVPIRLDMEIDGQKLRDAFTWNMNEKLMTPEMFSEILCDDLDFNPLTFVPAIASAIRQQIESY,-0.656 ± 0.17
3,SQPERLVPIRLDMEIDGQKLRDAFTWNMNEKLMTPEMFSEILCDDLDLNPLTFVPAIASAIRQQIESY,-0.205 ± 0.053
4,SQPEVLVPIRLDMEKDGQKLRDAFTWNMNEKLMTPEMFSEILCDDLDLNPLTFVPAIASAIRQQIESY,-0.982 ± 0.47
5,SQPETLVPIRLDMEIDGQKLRDAFTWNMNEKLMTPEMFSEILCDDLDLNPLTFVPAIASAIRQQIESY,0.213 ± 0.13
6,SQPEVLVPIRLDMEIDGQKSRDAFTWNMNEKLMTPEMFSEILCDDLDLNPLTFVPAIASAIRQQIESY,-0.603 ± 0.28
7,SQPEVLVPIRLDMEIDGQKLRDAFTWNMNEKLMTPEMFSEILCDDLDLNPLTFVPAIASAIRQMIESY,-0.904 ± 0.18
8,SQPEVLVPIRLDMEIDGQKLADAFTWNMNEKLMTPEMFSEILCDDLDLNPLTFVPAIASAIRQQIESY,-0.076 ± 0.056
9,SQPEVLVPIRLDMEIDGQKLRDAFTWNMNEKLMTPEMFSEILCDDLDLNPLTFSPAIASAIRQQIESY,-0.324 ± 0.14
10,SQPEVLVPIRLDMEIDGQKLRDAFTWNMNEKLMTPEMFSEILCDDLDLNQLTFVPAIASAIRQQIESY,-0.508 ± 0.15
11,SQPEVLVPIRLDMEIDGQKLRDAFTWNMNEKLMTPEMFSEILCDDLDLNPLTFVPAIASAIRQQIDSY,-0.073 ± 0.045
12,SQPEVLVPIRLDMEIDGQKLRDAFTWNMNEKLETPEMFSEILCDDLDLNPLTFVPAIASAIRQQIESY,-0.794 ± 0.15
13,SQPEVLVPIRLDMVIDGQKLRDAFTWNMNEKLMTPEMFSEILCDDLDLNPLTFVPAIASAIRQQIESY,-0.199 ± 0.059
14,SQPEVLVPIRLDMEIDGQKLRDAFTWNMNEKLMTPEMFSEILCDDLDLNPLTFVPAIASAIWQQIESY,-0.75 ± 0.18
15,SQPEVLVPIRLDMEIDGQKLRTAFTWNMNEKLMTPEMFSEILCDDLDLNPLTFVPAIASAIRQQIESY,0.28 ± 0.077
16,SQPEVLVPIRLDMEIDGQKLRDAFTWNMNEKLMTPEMFSEILCDDLDLNPLTFVPAIASAIRQQIEGY,-0.012 ± 0.039
17,SQPEVLVPIRLDMEIDGQKLRDAFTWNMNEKLHTPEMFSEILCDDLDLNPLTFVPAIASAIRQQIESY,-0.293 ± 0.12
18,SQPEVLVPIRLDMEIDGQKLRDAFTWNMNEKLMTPEMFSEILCDDLDLNPLTFVPAIASAIRQQIEFY,-0.06 ± 0.066
19,SQPEVLVPIRLDMEIDGQKLRDAFTWNMNEKLMTPEMFSEILCDDLDLNPLTFVPAIASAIRQVIESY,-0.941 ± 0.1
20,SQDEVLVPIRLDMEIDGQKLRDAFTWNMNEKLMTPEMFSEILCDDLDLNPLTFVPAIASAIRQQIESY,0.266 ± 0.074

row,Variant,abundance fitness
1,SQPEVLVPIRLDMEIDGQKLRDAFTWNMSEKLMTPEMFSEILCDDLDLNPLTFVPAIASAIRQQIESY,-0.136 ± 0.28
2,SQPSVLVPIRLDMEIDGQKLRDAFTWNMNEKLMTPEMFSEILCDDLDLNPLTFVPAIASAIRQQIESY,-0.331 ± 0.062
3,SQPEVLVPIRLDMEIDGQKLRDAFTWCMNEKLMTPEMFSEILCDDLDLNPLTFVPAIASAIRQQIESY,-0.923 ± 0.31
4,SQPEVLVPIRLDMEIDGQKLRDAFHWNMNEKLMTPEMFSEILCDDLDLNPLTFVPAIASAIRQQIESY,-0.065 ± 0.13
5,SQPEVLVLIRLDMEIDGQKLRDAFTWNMNEKLMTPEMFSEILCDDLDLNPLTFVPAIASAIRQQIESY,-0.512 ± 0.043
6,SQPEVLVPIRLDMEIDGQKLRDAFTWNMNEKLMTPEMFSEIYCDDLDLNPLTFVPAIASAIRQQIESY,-0.071 ± 0.12
7,SQPEVLVPIRLDMEIDGQKLRDAFTWNMNEKLVTPEMFSEILCDDLDLNPLTFVPAIASAIRQQIESY,-0.248 ± 0.052
8,SQPEVLVPIRLDMEIDGQKLRDAFTWNMNEKLMTPEMFSEILCDDLDLNPLTFGPAIASAIRQQIESY,0.144 ± 0.14
9,SQPEVLVPIRLDMEIDGQKLRDAFTWNMNEKLMTPEMFSEILCVDLDLNPLTFVPAIASAIRQQIESY,-0.008 ± 0.27
10,SQPEVLVPIRLDMEILGQKLRDAFTWNMNEKLMTPEMFSEILCDDLDLNPLTFVPAIASAIRQQIESY,-0.5 ± 0.055
11,SQPEVLVPIRLDMEIDGQKLRDAFTWNMNEKLMTPEMFSEILCDDLDLNPLTFVPAIASAIRQQISSY,-0.06 ± 0.039
12,SQPEVLVPIRLDMEIDGQKLRDGFTWNMNEKLMTPEMFSEILCDDLDLNPLTFVPAIASAIRQQIESY,-0.291 ± 0.038
13,SQPEVLVPIRLDMEIDGQKLRDAFTWNMNEKLMTPEMFSEILCDDLDLNPLTFVPAIASAIRQQIKSY,-0.106 ± 0.059
14,SQPEVLVPIRLDMEIDGQKLRDAFTWNMNEFLMTPEMFSEILCDDLDLNPLTFVPAIASAIRQQIESY,-0.397 ± 0.42
15,SQPEVLVPIRLDMEIDGQKLRDAFTWNMNEKFMTPEMFSEILCDDLDLNPLTFVPAIASAIRQQIESY,0.09 ± 0.079
16,SQPEVLVPIRLDMEIQGQKLRDAFTWNMNEKLMTPEMFSEILCDDLDLNPLTFVPAIASAIRQQIESY,-0.168 ± 0.062
17,SQPEVLVPIRLDMEIDGQKLRDAFTWNMNEKLMTPEMFSEILCDDLDLNPLTFVPAIASAIRQWIESY,-0.618 ± 0.097
18,SQPEVLVPIRLDMEIDGQKLRDAFTWNMNEKLMTPEMFSEIVCDDLDLNPLTFVPAIASAIRQQIESY,-0.111 ± 0.061
19,SQPEVLVPIRLDMEIDGQKLRDYFTWNMNEKLMTPEMFSEILCDDLDLNPLTFVPAIASAIRQQIESY,-0.147 ± 0.11
